Test results reported in the supplement of paper PMC10567573.
± gives the standard deviation.

Assay: protein stability index of a GFP-peptide fusion (GPS, HEK-293T) (PSI 1-6); higher = more stable
[1] = treatment: DMSO, c terminus: a fixed tail appended
[2] = treatment: MLN4924 1 uM, 8 h, c terminus: a fixed tail appended
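Also: 24-mer peptide tiles fused after GFP, lentivirally expressed, FACS-sorted into six equal bins by GFP/DsRed ratio, decoded by Illumina sequencing, PSI is the read-weighted mean bin number.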

EFDSPHEDIVFETDHILESLYRDI [STX11]
protein stability index [1]: 3.59 ± 0.38
protein stability index [2]: 3.58 ± 0.25

HGEGNHIYAYDAKIEIQTLTGLFK [CASP6]
protein stability index [1]: 2.17 ± 0.22
protein stability index [2]: 2.12 ± 0.33

PWKEETFLVLQSLLERQVEMTPEK [FANCE]
protein stability index [1]: 3 ± 0.22
protein stability index [2]: 3.08 ± 0.27

KTPLHQKHAAFVTPDQKYSMDNTP [MYBL2]
protein stability index [1]: 4.14 ± 0.38
protein stability index [2]: 4.23 ± 0.2

LICAISHTHRAHTVVPLDDATQEY [TRIM39]
protein stability index [1]: 2.59 ± 0.19
protein stability index [2]: 2.51 ± 0.38

SEEDGEARTQMILLRRSVEGASSD [PHTF1]
protein stability index [1]: 5.18 ± 0.21
protein stability index [2]: 5.23 ± 0.12

MPAAGLAVQLRHAWNPEDRSLNVF [SPSB4]
protein stability index [1]: 2.75 ± 0.14
protein stability index [2]: 2.95 ± 0.26

LSTHNWTYWQCGQYLGVGPGAHGR [RSAD1]
protein stability index [1]: 2.31 ± 0.21
protein stability index [2]: 1.99 ± 0.27

LYWTKWYNNQSLGHGSHSFIYYEN [PKD2L1]
protein stability index [1]: 2.53 ± 0.68
protein stability index [2]: 2.41 ± 0.47

LDMEKRRCRQSLEDSESLRIKEVE [LRRC45]
protein stability index [1]: 4.79 ± 0.2
protein stability index [2]: 4.67 ± 0.1

MSCRDRTQEFLSACKSLQTRQNGI [STX5]
protein stability index [1]: 3.1 ± 0.21
protein stability index [2]: 3.1 ± 0.36

SILNSCEDPVPGMLFFLPPGQHLS [FBXO34]
protein stability index [1]: 2.46 ± 0.2
protein stability index [2]: 2.41 ± 0.22

LPELKANPFKERICRVFSTSPAKD [CIB1]
protein stability index [1]: 3.46 ± 0.08
protein stability index [2]: 3.58 ± 0.2

NCRLQSPYFSPSASFHHKLHHKRL [CBY2]
protein stability index [1]: 2.32 ± 0.24
protein stability index [2]: 2.33 ± 0.16

DGSVLLIPRTMADQQARRQERKPK [NFE2L1]
protein stability index [1]: 3.5 ± 0.14
protein stability index [2]: 3.63 ± 0.31

YPFVLFYSKFHGLEMCVDARTFGN [KMT2E]
protein stability index [1]: 2.87 ± 0.51
protein stability index [2]: 2.28 ± 0.33

RQDAKYLNMRSTYAKLAAVAVFFI [SEC22B]
protein stability index [1]: 2.35 ± 0.4
protein stability index [2]: 2.15 ± 0.25

ALVVPKGNTAVSVLMLLVALLFTG [SCAMP3]
protein stability index [1]: 2.98 ± 0.75
protein stability index [2]: 2.62 ± 0.45

RVSAMRDYRGPDCRYLNFTKGEEI [MIA2]
protein stability index [1]: 3.02 ± 0.58
protein stability index [2]: 3.26 ± 0.49

SSAPDLMCLSPDRKMEVEELSPLA [CDC25B]
protein stability index [1]: 5 ± 0.37
protein stability index [2]: 5 ± 0.22

LVFLITAILVKVQLDALPFFVITM [SLC29A1]
protein stability index [1]: 3.06 ± 0.24
protein stability index [2]: 2.88 ± 0.39

PSLAVNLADPYRSLKAPGARGPGP [JUNB]
protein stability index [1]: 4.01 ± 0.29
protein stability index [2]: 3.83 ± 0.17

ESILMSLPLTARWEYMHSPSENSK [CPOX]
protein stability index [1]: 3.45 ± 0.57
protein stability index [2]: 3.93 ± 0.33

LLTIGDANGEIQRHAEQQALRLEV [CARM1]
protein stability index [1]: 3.53 ± 0.27
protein stability index [2]: 3.71 ± 0.11

SKRMTFQMPKFDLGPLLSEPLVLY [MYOZ1]
protein stability index [1]: 2.36 ± 0.39
protein stability index [2]: 2.26 ± 0.28

CCPTSREAAVEALELLGATYVDKK [FEM1A]
protein stability index [1]: 4.28 ± 0.06
protein stability index [2]: 4.3 ± 0.049

PLELLPGGPARPLGPGPAAPRLLK [CEBPD]
protein stability index [1]: 4.33 ± 0.12
protein stability index [2]: 4.54 ± 0.14

MADVINVSVNLEAFSQAISAIQAL [MED27]
protein stability index [1]: 2.38 ± 0.72
protein stability index [2]: 2.23 ± 0.17

TLVQDLANAFQQEAQTSGKERLLL [CHIT1]
protein stability index [1]: 3.16 ± 0.3
protein stability index [2]: 2.91 ± 0.19

PNTLYEGGYFKAHIKFPIDYPYSP [UBE2R2]
protein stability index [1]: 2.26 ± 0.13
protein stability index [2]: 2.21 ± 0.27

KFYPPDPAQLSEDITRYYLCLQLR [EPB41L3]
protein stability index [1]: 2.49 ± 0.048
protein stability index [2]: 2.48 ± 0.87

DLRLRLDHLGWVARGTGSGEDSST [RTN2]
protein stability index [1]: 3.53 ± 0.43
protein stability index [2]: 4.15 ± 0.37

ATGPMGMRGFKGDRGPKGEKGEKG [SCARA5]
protein stability index [1]: 5.22 ± 0.24
protein stability index [2]: 5.43 ± 0.34

ALRNFACLTTGDVIAINYNEKIYE [UFD1]
protein stability index [1]: 2.21 ± 0.49
protein stability index [2]: 2.29 ± 0.46

ELMKCQIIYPRQQLLTLRELEMIG [TRIP13]
protein stability index [1]: 2.33 ± 0.47
protein stability index [2]: 2.02 ± 0.53

RFEEPKGPPARQEDSKELRALRKM [CBY2]
protein stability index [1]: 4.91 ± 0.43
protein stability index [2]: 4.99 ± 0.2

GALGMSNRDSYFYAAIVAVVAVHV [VMA21]
protein stability index [1]: 2.77 ± 0.45
protein stability index [2]: 2.81 ± 0.22

IRLVDDAFGKICHMVSDGSWVVRV [INTS4]
protein stability index [1]: 3.07 ± 0.46
protein stability index [2]: 2.98 ± 0.54

PKAQPQTWKSGKQTMLSHYRPFYV [TRIM29]
protein stability index [1]: 2.57 ± 0.17
protein stability index [2]: 2.06 ± 0.39

GFFDVLGNDRRREWAALGNMSKED [ACBD3]
protein stability index [1]: 3.85 ± 0.44
protein stability index [2]: 4.551 ± 0.018

NQNSWGTGEDVKVILKNSQGEEVA [LMNB1]
protein stability index [1]: 4.99 ± 0.22
protein stability index [2]: 4.85 ± 0.13

EGHHHDVVACDFSPDGALLATASY [WSB1]
protein stability index [1]: 3.9 ± 0.23
protein stability index [2]: 4.03 ± 0.18

ARRDAKKLVRSPSGLRMVPEHRAF [ZFYVE21]
protein stability index [1]: 3.11 ± 0.31
protein stability index [2]: 3.56 ± 0.17

WTFYPRFSSNIHTYHVGKQCFFNG [SPATS1]
protein stability index [1]: 2.74 ± 0.53
protein stability index [2]: 2.24 ± 0.33

PTTGYRRLLRFSSQIHNNGQSDFR [LOXL2]
protein stability index [1]: 3.03 ± 0.37
protein stability index [2]: 3.22 ± 0.31

DMNGKSLHGKAIKVEQAKKPSFQS [RBMY1A1]
protein stability index [1]: 3.16 ± 0.2
protein stability index [2]: 3.61 ± 0.2

PFHEMFVSRGGHGQQDLFRVLKAY [TBC1D10A]
protein stability index [1]: 2.25 ± 0.18
protein stability index [2]: 2.42 ± 0.085

MNNAVRNLQELLELDSSSSLCVLV [CEP70]
protein stability index [1]: 2.36 ± 0.29
protein stability index [2]: 2.32 ± 0.19

QWGAEPEGSCYQTFRQYCGAACTC [RNF208]
protein stability index [1]: 3 ± 0.47
protein stability index [2]: 3.06 ± 0.34

GQLVRNDSLWHRSDSAPRNKISRF [MFF]
protein stability index [1]: 3.66 ± 0.87
protein stability index [2]: 4.04 ± 0.21

MYKLSSEQFHEAASKMESTIKPRR [CHCHD6]
protein stability index [1]: 3.72 ± 0.53
protein stability index [2]: 4.07 ± 0.64

LDRDALKQSLVVAVQDHGQPPLSA [PCDHGA10]
protein stability index [1]: 4.49 ± 0.19
protein stability index [2]: 4.678 ± 0.044

GGLATGIAGGLAGMGGIQNEKETM [KRT18]
protein stability index [1]: 4.95 ± 0.33
protein stability index [2]: 4.58 ± 0.39

LTLDLPTAPLYKDEKEQLIIPQVP [USP39]
protein stability index [1]: 3.91 ± 0.33
protein stability index [2]: 3.92 ± 0.25

LGPSRDPDPLNICVFILLLVFIVV [RTP4]
protein stability index [1]: 3.8 ± 0.48
protein stability index [2]: 2.77 ± 0.41

YGGRSVAPQNSFSAKLAPHYFHSI [KCNK9]
protein stability index [1]: 2.23 ± 0.11
protein stability index [2]: 2.3 ± 0.3

QVLIKHSADVNARDKNWQTPLHVA [ANKRD44]
protein stability index [1]: 3.15 ± 0.34
protein stability index [2]: 3.01 ± 0.32

LRTRVKTTGIVETHFTFKDLHFKM [GNAI1]
protein stability index [2]: 2.14 ± 0.62

PESSALQPPPQSSEGLVGALMHVM [WAS]
protein stability index [1]: 3.77 ± 0.17
protein stability index [2]: 3.58 ± 0.56

YYIDDVFHALVREIRRKEKEAVLA [RIT1]
protein stability index [1]: 2.27 ± 0.32
protein stability index [2]: 1.94 ± 0.53

DDVISRIDRMFPEMSIHLSRPNGT [MED27]
protein stability index [1]: 3.25 ± 0.24
protein stability index [2]: 3.36 ± 0.25

NSAAATSPKGTLPPAALESSDSAN [CAMK2B]
protein stability index [1]: 5.39 ± 0.096
protein stability index [2]: 5.37 ± 0.21

MDRFDCQYLMATFVHVYITSFIRG [CDS1]
protein stability index [1]: 3.01 ± 0.56
protein stability index [2]: 3.67 ± 0.73

AGNCPECGTPLRKSNFRVQLFEDP [MNAT1]
protein stability index [1]: 3.62 ± 0.33
protein stability index [2]: 4.08 ± 0.2

DDTETVPSEQSHASGKLRKKKKKQ [TCF25]
protein stability index [1]: 5.52 ± 0.44
protein stability index [2]: 5.88 ± 0.17

NFSNYYVAHPPVTYSQPYPTWLPC [TENT5C]
protein stability index [1]: 2.46 ± 0.5
protein stability index [2]: 2.17 ± 0.098

TWGKNKPGIGAVILKRFCWLLLQ [FAN1]
protein stability index (treatment: DMSO, c terminus: native): 3.45 ± 0.45
protein stability index (treatment: MLN4924 1 uM, 8 h, c terminus: native): 2.87 ± 0.53

DVNSFVTECEPSELFQLQTYSLPP [CDS1]
protein stability index [1]: 3.58 ± 0.29
protein stability index [2]: 3.54 ± 0.35

PIRSISLRSCYFSDPDCSMRPTLI [FBXO39]
protein stability index [1]: 2.13 ± 0.36
protein stability index [2]: 2.07 ± 0.27

ADIKQYIGPPSAAAIFKIYLSCLE [TRIP13]
protein stability index [1]: 2.19 ± 0.4
protein stability index [2]: 2.27 ± 0.22

QKDLIMKVENLTLKNHFQSVLEQL [TAF7L]
protein stability index [1]: 2.66 ± 0.2
protein stability index [2]: 2.4 ± 0.29

IFSIVFVFFVCFVPYHIARIPYTK [P2RY14]
protein stability index [1]: 3.1 ± 0.21
protein stability index [2]: 3 ± 0.49

EGPGEQETKLDLISKGEEPRAGKE [SLC29A1]
protein stability index [1]: 5.68 ± 0.21
protein stability index [2]: 5.43 ± 0.21

SRVTASSGITIPKPPKPPDKPLMP [SMARCE1]
protein stability index [1]: 3.78 ± 0.25
protein stability index [2]: 3.94 ± 0.18

FLKKSQLTEHKRIHTGKKPHVCSL [ZNF649]
protein stability index [1]: 2.76 ± 0.36
protein stability index [2]: 2.75 ± 0.36

KNNLSFIETSALDSTNVEEAFKNI [RAB11B]
protein stability index [1]: 4.33 ± 0.2
protein stability index [2]: 4.33 ± 0.3

NTEIEKLGRSIVSSPQGKSGPEAA [PKD2L1]
protein stability index [1]: 5.35 ± 0.22
protein stability index [2]: 5.34 ± 0.15

EVLLASLANPVLESTPVGTVVGLF [PCDHGC5]
protein stability index [1]: 2.53 ± 0.51
protein stability index [2]: 2.33 ± 0.43

EDAYKIRIRIDDEPANLDILDTAG [RIT1]
protein stability index [1]: 3.38 ± 0.28
protein stability index [2]: 3.47 ± 0.65

IEADRRRAQLHVQGLLHEAGSTDD [SPNS1]
protein stability index [1]: 4.87 ± 0.18
protein stability index [2]: 5.1 ± 0.33

ETALYRKMLGNPSRLPAKCPGKGA [FKBP8]
protein stability index [1]: 3.61 ± 0.31
protein stability index [2]: 3.62 ± 0.3

QLQVESNSSQLLLRRHAGLLDGLA [SCARA5]
protein stability index [1]: 2.68 ± 0.26
protein stability index [2]: 2.9 ± 0.17

KVVSRAENLSVPVIGALLRFNQAI [LPCAT4]
protein stability index [1]: 2.15 ± 0.54
protein stability index [2]: 2.18 ± 0.19

DSAKREVKQKISPYFKSNDVVCKN [FAN1]
protein stability index [1]: 3.95 ± 0.35
protein stability index [2]: 4 ± 0.31

GERVAARGYWGDIATGPFVAFGIE [DNAAF3]
protein stability index [1]: 2.05 ± 0.3
protein stability index [2]: 2.35 ± 0.28

GKTDDTLALLNLACMMTITFLPYT [TMEM175]
protein stability index [1]: 3.21 ± 0.33
protein stability index [2]: 3.08 ± 0.16

ADAAEDEEVDVTSVDPIAAFCSSD [RBBP5]
protein stability index [1]: 5.57 ± 0.2
protein stability index [2]: 5.55 ± 0.2

KKLKKDDKKKELQELNELFKPVVA [ZC3H15]
protein stability index [1]: 4.18 ± 0.48
protein stability index [2]: 4.15 ± 0.34

YLQKIEEFAEMVEREEEDDALDSE [KCNG1]
protein stability index [1]: 5 ± 0.51
protein stability index [2]: 5.15 ± 0.17
